In IntAct's records for PubMed 35512704:

B1: Speckle-type POZ protein (Homo sapiens), O43791 (parent)
chain: MSRVPSPPPPAEMSSGPVAESWCYTQIKVVKFSYMWTINNFSFCREEMGEVIKSSTFSSGANDKLKWCLRVNPKGLDEESKDYLSLYLLLVSCPKSEVRAKFKFSILNAKGEETKAMESQRAYRFVQGKDWGFKKFIRRDFLLDEANGLLPDDKLTLFCEVSVVQDSVNISGQNTMNMVKVPECRLADELGGLWENSRFTDCCLCVAGQEFQAHKAILAARSPVFSAMFEHEMEESKKNRVEINDVEPEVFKEMMCFIYTGKAPNLDKMADDLLAAADKYALERLKVMCEDALCSNLSVENAAEILILADLHSADQLKTQAVDFINYHASDVLETSGWKSMVVSHPHLVAEAYRSLASAQCPFLGPPRKRLKQS

Variants of: B1
Conditions: with mk10_human MAPK10, P53779
mk10_human MAPK10, P53779, sequence (P53779 whole entry): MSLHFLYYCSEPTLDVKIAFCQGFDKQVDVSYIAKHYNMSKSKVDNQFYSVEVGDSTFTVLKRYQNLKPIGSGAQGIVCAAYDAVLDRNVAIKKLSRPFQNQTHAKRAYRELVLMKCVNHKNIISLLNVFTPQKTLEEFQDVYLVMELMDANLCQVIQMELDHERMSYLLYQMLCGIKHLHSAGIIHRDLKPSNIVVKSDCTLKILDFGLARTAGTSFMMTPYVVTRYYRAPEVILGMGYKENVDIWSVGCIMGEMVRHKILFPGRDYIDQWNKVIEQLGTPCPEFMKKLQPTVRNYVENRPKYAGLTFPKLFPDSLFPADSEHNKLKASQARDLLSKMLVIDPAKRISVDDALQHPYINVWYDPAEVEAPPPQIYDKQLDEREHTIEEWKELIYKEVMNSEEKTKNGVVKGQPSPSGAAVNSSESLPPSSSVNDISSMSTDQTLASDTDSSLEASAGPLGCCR

effect of a mutation on the interaction	Variant
with no effect	MSRVPSPPPPAEMSSGPVAESWCYTQIKVVKFSYMWTINNFSFCREEMGEVIKSSTFSSGANDKLKWCLRVNPKGLDEESKDYLSLYLLLVSCPKSEVRAKCKFSILNAKGEETKAMESQRAYRFVQGKDWGFKKFIRRDFLLDEANGLLPDDKLTLFCEVSVVQDSVNISGQNTMNMVKVPECRLADELGGLWENSRFTDCCLCVAGQEFQAHKAILAARSPVFSAMFEHEMEESKKNRVEINDVEPEVFKEMMCFIYTGKAPNLDKMADDLLAAADKYALERLKVMCEDALCSNLSVENAAEILILADLHSADQLKTQAVDFINYHASDVLETSGWKSMVVSHPHLVAEAYRSLASAQCPFLGPPRKRLKQS [F102C]

Variants of: B1
Conditions: with mk14_human MAPK14, Q16539
mk14_human MAPK14, Q16539, sequence (Q16539 whole entry): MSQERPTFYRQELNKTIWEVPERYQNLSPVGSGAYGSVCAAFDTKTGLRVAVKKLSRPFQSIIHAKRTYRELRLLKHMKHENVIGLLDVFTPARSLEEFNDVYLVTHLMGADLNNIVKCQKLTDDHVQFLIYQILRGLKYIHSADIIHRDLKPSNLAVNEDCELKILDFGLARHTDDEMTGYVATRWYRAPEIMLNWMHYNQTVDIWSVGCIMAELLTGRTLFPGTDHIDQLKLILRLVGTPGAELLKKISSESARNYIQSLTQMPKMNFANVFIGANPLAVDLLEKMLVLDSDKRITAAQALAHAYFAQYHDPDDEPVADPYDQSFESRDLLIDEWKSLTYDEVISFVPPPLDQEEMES

effect of a mutation on the interaction	Variant
with no effect	MSRVPSPPPPAEMSSGPVAESWCYTQIKVVKFSYMWTINNFSFCREEMGEVIKSSTFSSGANDKLKWCLRVNPKGLDEESKDYLSLYLLLVSCPKSEVRAKCKFSILNAKGEETKAMESQRAYRFVQGKDWGFKKFIRRDFLLDEANGLLPDDKLTLFCEVSVVQDSVNISGQNTMNMVKVPECRLADELGGLWENSRFTDCCLCVAGQEFQAHKAILAARSPVFSAMFEHEMEESKKNRVEINDVEPEVFKEMMCFIYTGKAPNLDKMADDLLAAADKYALERLKVMCEDALCSNLSVENAAEILILADLHSADQLKTQAVDFINYHASDVLETSGWKSMVVSHPHLVAEAYRSLASAQCPFLGPPRKRLKQS [F102C]

Variants of: B1
Conditions: with mk03_human MAPK3, P27361
mk03_human MAPK3, P27361, sequence (P27361 whole entry): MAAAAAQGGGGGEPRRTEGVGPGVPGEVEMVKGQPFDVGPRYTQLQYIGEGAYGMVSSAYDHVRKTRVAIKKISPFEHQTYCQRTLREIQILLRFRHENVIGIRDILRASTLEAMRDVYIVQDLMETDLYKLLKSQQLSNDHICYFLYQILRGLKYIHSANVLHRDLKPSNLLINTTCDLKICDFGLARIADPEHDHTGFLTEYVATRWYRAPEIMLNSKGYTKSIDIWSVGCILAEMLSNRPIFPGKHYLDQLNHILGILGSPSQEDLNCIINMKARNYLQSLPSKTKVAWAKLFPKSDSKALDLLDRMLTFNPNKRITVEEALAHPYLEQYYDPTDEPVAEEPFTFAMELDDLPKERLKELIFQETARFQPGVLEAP

effect of a mutation on the interaction	Variant
with no effect	MSRVPSPPPPAEMSSGPVAESWCYTQIKVVKFSYMWTINNFSFCREEMGEVIKSSTFSSGANDKLKWCLRVNPKGLDEESKDYLSLYLLLVSCPKSEVRAKCKFSILNAKGEETKAMESQRAYRFVQGKDWGFKKFIRRDFLLDEANGLLPDDKLTLFCEVSVVQDSVNISGQNTMNMVKVPECRLADELGGLWENSRFTDCCLCVAGQEFQAHKAILAARSPVFSAMFEHEMEESKKNRVEINDVEPEVFKEMMCFIYTGKAPNLDKMADDLLAAADKYALERLKVMCEDALCSNLSVENAAEILILADLHSADQLKTQAVDFINYHASDVLETSGWKSMVVSHPHLVAEAYRSLASAQCPFLGPPRKRLKQS [F102C]

Variants of: B1
Conditions: with mk04_human MAPK4, P31152
mk04_human MAPK4, P31152, sequence (P31152 whole entry): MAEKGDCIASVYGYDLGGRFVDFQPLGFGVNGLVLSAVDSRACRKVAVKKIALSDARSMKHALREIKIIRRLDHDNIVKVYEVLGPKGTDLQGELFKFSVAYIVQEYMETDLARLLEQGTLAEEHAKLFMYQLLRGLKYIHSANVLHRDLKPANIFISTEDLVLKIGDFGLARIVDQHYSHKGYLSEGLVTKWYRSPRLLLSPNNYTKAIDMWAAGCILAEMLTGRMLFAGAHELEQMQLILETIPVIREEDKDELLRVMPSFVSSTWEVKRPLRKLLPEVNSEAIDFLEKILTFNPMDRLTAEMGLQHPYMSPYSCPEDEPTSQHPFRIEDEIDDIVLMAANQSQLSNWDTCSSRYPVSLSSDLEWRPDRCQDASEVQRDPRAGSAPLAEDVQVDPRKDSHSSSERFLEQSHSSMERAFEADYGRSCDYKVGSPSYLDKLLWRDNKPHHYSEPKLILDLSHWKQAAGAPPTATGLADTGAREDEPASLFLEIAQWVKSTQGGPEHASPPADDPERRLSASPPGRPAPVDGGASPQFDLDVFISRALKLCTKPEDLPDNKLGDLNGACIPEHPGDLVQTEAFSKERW

effect of a mutation on the interaction	Variant
with no effect	MSRVPSPPPPAEMSSGPVAESWCYTQIKVVKFSYMWTINNFSFCREEMGEVIKSSTFSSGANDKLKWCLRVNPKGLDEESKDYLSLYLLLVSCPKSEVRAKCKFSILNAKGEETKAMESQRAYRFVQGKDWGFKKFIRRDFLLDEANGLLPDDKLTLFCEVSVVQDSVNISGQNTMNMVKVPECRLADELGGLWENSRFTDCCLCVAGQEFQAHKAILAARSPVFSAMFEHEMEESKKNRVEINDVEPEVFKEMMCFIYTGKAPNLDKMADDLLAAADKYALERLKVMCEDALCSNLSVENAAEILILADLHSADQLKTQAVDFINYHASDVLETSGWKSMVVSHPHLVAEAYRSLASAQCPFLGPPRKRLKQS [F102C]

Variants of: B1
Conditions: with mk06_human MAPK6, Q16659
mk06_human MAPK6, Q16659, sequence (Q16659 whole entry): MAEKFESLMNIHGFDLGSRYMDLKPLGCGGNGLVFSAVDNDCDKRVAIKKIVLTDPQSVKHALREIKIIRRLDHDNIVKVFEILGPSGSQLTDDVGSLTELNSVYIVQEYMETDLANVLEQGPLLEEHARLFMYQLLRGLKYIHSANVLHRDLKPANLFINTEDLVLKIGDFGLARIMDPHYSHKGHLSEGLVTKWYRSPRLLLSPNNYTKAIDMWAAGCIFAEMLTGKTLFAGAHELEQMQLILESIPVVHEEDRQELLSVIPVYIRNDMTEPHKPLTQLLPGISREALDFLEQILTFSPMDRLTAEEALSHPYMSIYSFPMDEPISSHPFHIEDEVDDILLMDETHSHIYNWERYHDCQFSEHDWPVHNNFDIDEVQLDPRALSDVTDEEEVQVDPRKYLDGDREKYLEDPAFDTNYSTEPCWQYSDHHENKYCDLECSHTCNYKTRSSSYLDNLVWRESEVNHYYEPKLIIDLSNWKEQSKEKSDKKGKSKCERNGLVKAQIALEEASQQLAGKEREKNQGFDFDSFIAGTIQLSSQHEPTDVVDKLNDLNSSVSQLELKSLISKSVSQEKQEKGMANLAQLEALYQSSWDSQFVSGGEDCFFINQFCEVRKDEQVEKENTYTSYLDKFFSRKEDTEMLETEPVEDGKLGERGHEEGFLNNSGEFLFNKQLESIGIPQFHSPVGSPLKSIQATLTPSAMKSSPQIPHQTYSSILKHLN

effect of a mutation on the interaction	Variant
with no effect	MSRVPSPPPPAEMSSGPVAESWCYTQIKVVKFSYMWTINNFSFCREEMGEVIKSSTFSSGANDKLKWCLRVNPKGLDEESKDYLSLYLLLVSCPKSEVRAKCKFSILNAKGEETKAMESQRAYRFVQGKDWGFKKFIRRDFLLDEANGLLPDDKLTLFCEVSVVQDSVNISGQNTMNMVKVPECRLADELGGLWENSRFTDCCLCVAGQEFQAHKAILAARSPVFSAMFEHEMEESKKNRVEINDVEPEVFKEMMCFIYTGKAPNLDKMADDLLAAADKYALERLKVMCEDALCSNLSVENAAEILILADLHSADQLKTQAVDFINYHASDVLETSGWKSMVVSHPHLVAEAYRSLASAQCPFLGPPRKRLKQS [F102C]

Variants of: B1
Conditions: with sin1_human MAPKAP1, Q9BPZ7
sin1_human MAPKAP1, Q9BPZ7, sequence (Q9BPZ7 whole entry): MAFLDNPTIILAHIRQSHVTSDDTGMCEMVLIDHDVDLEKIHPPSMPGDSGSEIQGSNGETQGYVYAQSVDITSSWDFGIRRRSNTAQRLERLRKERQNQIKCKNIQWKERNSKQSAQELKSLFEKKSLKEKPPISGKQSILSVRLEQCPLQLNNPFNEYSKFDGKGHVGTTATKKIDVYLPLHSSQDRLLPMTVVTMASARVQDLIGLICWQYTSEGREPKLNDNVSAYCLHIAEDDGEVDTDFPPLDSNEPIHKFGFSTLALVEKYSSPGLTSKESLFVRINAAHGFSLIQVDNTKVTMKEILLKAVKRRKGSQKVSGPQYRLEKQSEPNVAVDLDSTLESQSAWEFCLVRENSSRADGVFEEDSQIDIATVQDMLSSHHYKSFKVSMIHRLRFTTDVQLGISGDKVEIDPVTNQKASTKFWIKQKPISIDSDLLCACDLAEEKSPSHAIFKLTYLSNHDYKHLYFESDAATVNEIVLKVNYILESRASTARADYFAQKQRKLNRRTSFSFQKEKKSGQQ

effect of a mutation on the interaction	Variant
with no effect	MSRVPSPPPPAEMSSGPVAESWCYTQIKVVKFSYMWTINNFSFCREEMGEVIKSSTFSSGANDKLKWCLRVNPKGLDEESKDYLSLYLLLVSCPKSEVRAKCKFSILNAKGEETKAMESQRAYRFVQGKDWGFKKFIRRDFLLDEANGLLPDDKLTLFCEVSVVQDSVNISGQNTMNMVKVPECRLADELGGLWENSRFTDCCLCVAGQEFQAHKAILAARSPVFSAMFEHEMEESKKNRVEINDVEPEVFKEMMCFIYTGKAPNLDKMADDLLAAADKYALERLKVMCEDALCSNLSVENAAEILILADLHSADQLKTQAVDFINYHASDVLETSGWKSMVVSHPHLVAEAYRSLASAQCPFLGPPRKRLKQS [F102C]

Variants of: B1
Conditions: with mcl1_human MCL1, Q07820
mcl1_human MCL1, Q07820, sequence (Q07820 whole entry): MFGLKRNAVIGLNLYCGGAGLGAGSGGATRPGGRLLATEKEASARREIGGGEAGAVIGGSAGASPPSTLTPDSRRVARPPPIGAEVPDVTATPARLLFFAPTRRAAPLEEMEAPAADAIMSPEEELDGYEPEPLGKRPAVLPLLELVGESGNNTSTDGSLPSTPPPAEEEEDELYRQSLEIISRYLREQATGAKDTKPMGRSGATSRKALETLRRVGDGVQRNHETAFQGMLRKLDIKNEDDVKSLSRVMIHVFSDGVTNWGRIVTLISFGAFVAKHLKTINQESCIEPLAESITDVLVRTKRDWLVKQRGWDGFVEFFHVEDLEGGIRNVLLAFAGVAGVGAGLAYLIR

effect of a mutation on the interaction	Variant
with no effect	MSRVPSPPPPAEMSSGPVAESWCYTQIKVVKFSYMWTINNFSFCREEMGEVIKSSTFSSGANDKLKWCLRVNPKGLDEESKDYLSLYLLLVSCPKSEVRAKCKFSILNAKGEETKAMESQRAYRFVQGKDWGFKKFIRRDFLLDEANGLLPDDKLTLFCEVSVVQDSVNISGQNTMNMVKVPECRLADELGGLWENSRFTDCCLCVAGQEFQAHKAILAARSPVFSAMFEHEMEESKKNRVEINDVEPEVFKEMMCFIYTGKAPNLDKMADDLLAAADKYALERLKVMCEDALCSNLSVENAAEILILADLHSADQLKTQAVDFINYHASDVLETSGWKSMVVSHPHLVAEAYRSLASAQCPFLGPPRKRLKQS [F102C]

Variants of: B1
Conditions: with mdm2_human MDM2, Q00987
mdm2_human MDM2, Q00987, sequence (Q00987 whole entry, looked up): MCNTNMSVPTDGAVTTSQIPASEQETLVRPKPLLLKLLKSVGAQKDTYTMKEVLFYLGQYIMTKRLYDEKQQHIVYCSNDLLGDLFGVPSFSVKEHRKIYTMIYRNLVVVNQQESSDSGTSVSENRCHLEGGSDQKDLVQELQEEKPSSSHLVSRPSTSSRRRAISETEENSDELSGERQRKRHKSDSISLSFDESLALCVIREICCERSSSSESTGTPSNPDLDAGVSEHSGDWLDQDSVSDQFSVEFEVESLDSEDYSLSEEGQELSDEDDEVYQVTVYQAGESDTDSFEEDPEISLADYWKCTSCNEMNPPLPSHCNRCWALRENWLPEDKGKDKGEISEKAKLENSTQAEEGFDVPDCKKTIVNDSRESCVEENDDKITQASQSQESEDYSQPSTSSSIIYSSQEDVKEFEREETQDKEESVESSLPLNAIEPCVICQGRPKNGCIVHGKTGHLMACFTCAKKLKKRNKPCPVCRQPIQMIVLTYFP

effect of a mutation on the interaction	Variant
with no effect	MSRVPSPPPPAEMSSGPVAESWCYTQIKVVKFSYMWTINNFSFCREEMGEVIKSSTFSSGANDKLKWCLRVNPKGLDEESKDYLSLYLLLVSCPKSEVRAKCKFSILNAKGEETKAMESQRAYRFVQGKDWGFKKFIRRDFLLDEANGLLPDDKLTLFCEVSVVQDSVNISGQNTMNMVKVPECRLADELGGLWENSRFTDCCLCVAGQEFQAHKAILAARSPVFSAMFEHEMEESKKNRVEINDVEPEVFKEMMCFIYTGKAPNLDKMADDLLAAADKYALERLKVMCEDALCSNLSVENAAEILILADLHSADQLKTQAVDFINYHASDVLETSGWKSMVVSHPHLVAEAYRSLASAQCPFLGPPRKRLKQS [F102C]

Variants of: B1
Conditions: with mef2a_human MEF2A

effect of a mutation on the interaction	Variant
with no effect	MSRVPSPPPPAEMSSGPVAESWCYTQIKVVKFSYMWTINNFSFCREEMGEVIKSSTFSSGANDKLKWCLRVNPKGLDEESKDYLSLYLLLVSCPKSEVRAKCKFSILNAKGEETKAMESQRAYRFVQGKDWGFKKFIRRDFLLDEANGLLPDDKLTLFCEVSVVQDSVNISGQNTMNMVKVPECRLADELGGLWENSRFTDCCLCVAGQEFQAHKAILAARSPVFSAMFEHEMEESKKNRVEINDVEPEVFKEMMCFIYTGKAPNLDKMADDLLAAADKYALERLKVMCEDALCSNLSVENAAEILILADLHSADQLKTQAVDFINYHASDVLETSGWKSMVVSHPHLVAEAYRSLASAQCPFLGPPRKRLKQS [F102C]

Variants of: B1
Conditions: with mitf_human MITF

effect of a mutation on the interaction	Variant
with no effect	MSRVPSPPPPAEMSSGPVAESWCYTQIKVVKFSYMWTINNFSFCREEMGEVIKSSTFSSGANDKLKWCLRVNPKGLDEESKDYLSLYLLLVSCPKSEVRAKCKFSILNAKGEETKAMESQRAYRFVQGKDWGFKKFIRRDFLLDEANGLLPDDKLTLFCEVSVVQDSVNISGQNTMNMVKVPECRLADELGGLWENSRFTDCCLCVAGQEFQAHKAILAARSPVFSAMFEHEMEESKKNRVEINDVEPEVFKEMMCFIYTGKAPNLDKMADDLLAAADKYALERLKVMCEDALCSNLSVENAAEILILADLHSADQLKTQAVDFINYHASDVLETSGWKSMVVSHPHLVAEAYRSLASAQCPFLGPPRKRLKQS [F102C]

Variants of: B1
Conditions: with mtor_human MTOR

effect of a mutation on the interaction	Variant
with no effect	MSRVPSPPPPAEMSSGPVAESWCYTQIKVVKFSYMWTINNFSFCREEMGEVIKSSTFSSGANDKLKWCLRVNPKGLDEESKDYLSLYLLLVSCPKSEVRAKCKFSILNAKGEETKAMESQRAYRFVQGKDWGFKKFIRRDFLLDEANGLLPDDKLTLFCEVSVVQDSVNISGQNTMNMVKVPECRLADELGGLWENSRFTDCCLCVAGQEFQAHKAILAARSPVFSAMFEHEMEESKKNRVEINDVEPEVFKEMMCFIYTGKAPNLDKMADDLLAAADKYALERLKVMCEDALCSNLSVENAAEILILADLHSADQLKTQAVDFINYHASDVLETSGWKSMVVSHPHLVAEAYRSLASAQCPFLGPPRKRLKQS [F102C]

Variants of: B1
Conditions: with mybb_human MYBL2, P10244
mybb_human MYBL2, P10244, sequence (P10244 whole entry): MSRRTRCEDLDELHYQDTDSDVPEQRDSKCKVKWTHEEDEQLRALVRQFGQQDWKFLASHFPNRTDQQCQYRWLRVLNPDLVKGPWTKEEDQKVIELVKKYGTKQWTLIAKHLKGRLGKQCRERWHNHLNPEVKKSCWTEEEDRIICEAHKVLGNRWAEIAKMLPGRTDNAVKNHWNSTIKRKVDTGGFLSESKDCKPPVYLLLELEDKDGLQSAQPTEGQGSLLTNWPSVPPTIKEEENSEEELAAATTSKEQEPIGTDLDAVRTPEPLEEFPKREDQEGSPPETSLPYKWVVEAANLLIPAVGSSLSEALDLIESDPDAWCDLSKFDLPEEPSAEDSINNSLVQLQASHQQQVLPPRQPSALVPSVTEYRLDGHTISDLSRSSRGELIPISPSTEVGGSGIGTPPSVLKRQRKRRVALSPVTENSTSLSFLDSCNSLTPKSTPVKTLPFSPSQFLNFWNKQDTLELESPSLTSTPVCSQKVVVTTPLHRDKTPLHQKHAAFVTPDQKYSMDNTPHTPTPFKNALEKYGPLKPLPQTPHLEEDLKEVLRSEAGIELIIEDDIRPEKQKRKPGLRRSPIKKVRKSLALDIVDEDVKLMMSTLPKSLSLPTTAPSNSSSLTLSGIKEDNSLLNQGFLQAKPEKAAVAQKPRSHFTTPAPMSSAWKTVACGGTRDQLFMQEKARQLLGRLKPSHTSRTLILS

effect of a mutation on the interaction	Variant
with no effect	MSRVPSPPPPAEMSSGPVAESWCYTQIKVVKFSYMWTINNFSFCREEMGEVIKSSTFSSGANDKLKWCLRVNPKGLDEESKDYLSLYLLLVSCPKSEVRAKCKFSILNAKGEETKAMESQRAYRFVQGKDWGFKKFIRRDFLLDEANGLLPDDKLTLFCEVSVVQDSVNISGQNTMNMVKVPECRLADELGGLWENSRFTDCCLCVAGQEFQAHKAILAARSPVFSAMFEHEMEESKKNRVEINDVEPEVFKEMMCFIYTGKAPNLDKMADDLLAAADKYALERLKVMCEDALCSNLSVENAAEILILADLHSADQLKTQAVDFINYHASDVLETSGWKSMVVSHPHLVAEAYRSLASAQCPFLGPPRKRLKQS [F102C]

Variants of: B1
Conditions: with myc_human MYC

effect of a mutation on the interaction	Variant
with no effect	MSRVPSPPPPAEMSSGPVAESWCYTQIKVVKFSYMWTINNFSFCREEMGEVIKSSTFSSGANDKLKWCLRVNPKGLDEESKDYLSLYLLLVSCPKSEVRAKCKFSILNAKGEETKAMESQRAYRFVQGKDWGFKKFIRRDFLLDEANGLLPDDKLTLFCEVSVVQDSVNISGQNTMNMVKVPECRLADELGGLWENSRFTDCCLCVAGQEFQAHKAILAARSPVFSAMFEHEMEESKKNRVEINDVEPEVFKEMMCFIYTGKAPNLDKMADDLLAAADKYALERLKVMCEDALCSNLSVENAAEILILADLHSADQLKTQAVDFINYHASDVLETSGWKSMVVSHPHLVAEAYRSLASAQCPFLGPPRKRLKQS [F102C]

Variants of: B1
Conditions: with mycn_human MYCN

effect of a mutation on the interaction	Variant
with no effect	MSRVPSPPPPAEMSSGPVAESWCYTQIKVVKFSYMWTINNFSFCREEMGEVIKSSTFSSGANDKLKWCLRVNPKGLDEESKDYLSLYLLLVSCPKSEVRAKCKFSILNAKGEETKAMESQRAYRFVQGKDWGFKKFIRRDFLLDEANGLLPDDKLTLFCEVSVVQDSVNISGQNTMNMVKVPECRLADELGGLWENSRFTDCCLCVAGQEFQAHKAILAARSPVFSAMFEHEMEESKKNRVEINDVEPEVFKEMMCFIYTGKAPNLDKMADDLLAAADKYALERLKVMCEDALCSNLSVENAAEILILADLHSADQLKTQAVDFINYHASDVLETSGWKSMVVSHPHLVAEAYRSLASAQCPFLGPPRKRLKQS [F102C]

Variants of: B1
Conditions: with ncoa3_human NCOA3, Q9Y6Q9

effect of a mutation on the interaction	Variant
with no effect	MSRVPSPPPPAEMSSGPVAESWCYTQIKVVKFSYMWTINNFSFCREEMGEVIKSSTFSSGANDKLKWCLRVNPKGLDEESKDYLSLYLLLVSCPKSEVRAKCKFSILNAKGEETKAMESQRAYRFVQGKDWGFKKFIRRDFLLDEANGLLPDDKLTLFCEVSVVQDSVNISGQNTMNMVKVPECRLADELGGLWENSRFTDCCLCVAGQEFQAHKAILAARSPVFSAMFEHEMEESKKNRVEINDVEPEVFKEMMCFIYTGKAPNLDKMADDLLAAADKYALERLKVMCEDALCSNLSVENAAEILILADLHSADQLKTQAVDFINYHASDVLETSGWKSMVVSHPHLVAEAYRSLASAQCPFLGPPRKRLKQS [F102C]
